Measurements as given in patent US20210206877.

Target: certain anti-BACE1 antibodies (tested in the FRET short substrate assay)

B1: BACE1 ECD (as used in the enzyme activity assay) (protein)
chain: TQHGIRLPLRSGLGGAPLGLRLPRETDEEPEEPGRRGSFVEMVDNLRGKSGQGYYVEMTVGSPPQTLNILVDTGSSNFAVGAAPHPFLHRYYQRQLSSTYRDLRKGVYVPYTQGKWEGELGTDLVSIPHGPNVTVRANIAAITESDKFFINGSNWEGILGLAYAEIARPDDSLEPFFDSLVKQTHVPNLFSLQLCGAGFPLNQSEVLASVGGSMIIGGIDHSLYTGSLWYTPIRREWYYEVIIVRVEINGQDLKMDCKEYNYDKSIVDSGTTNLRLPKKVFEAAVKSIKAASSTEKFPDGFWLGEQLVCWQAGTTPWNIFPVISLYLMGEVTNQSFRITILPQQYLRPVEDVATSQDDCYKFAISQSSTGTVMGAVIMEGFYVVFDRARKRIGFAVSACHVHDEFRTAAVEGPFVTLDMEDCGYNIPQTDESTLMT
- Modulation of BACE1 activity (cleavage of FRET short substrate Mca-SEVNLDAEFRK(Dnp)RR-NH2): both enzyme inhibition (positive percentages), and enzyme activation (negative values) were observed
